Assay results from PMC1838920.

Biological target: T1, His6-CIII (bacteriophage lambda CIII) (bacteriophage lambda), P03044
T1 chain: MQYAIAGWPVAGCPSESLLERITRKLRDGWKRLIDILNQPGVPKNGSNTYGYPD
Test: cross-linking; 10 µM His6-CIII in PBS with 0.1 mg/ml BSA at 42°C, 0.25% glutaraldehyde for 1 or 5 minutes, stopped by 200 mM glycine; NuPAGE and western blot against the His6 tag
Details: remark: other sources report otherwise

B1: His6-CIII (bacteriophage lambda CIII), P03044 1-54 (natural protein)
chain: MQYAIAGWPVAGCPSESLLERITRKLRDGWKRLIDILNQPGVPKNGSNTYGYPD
- stoichiometry N: < 12
